Measurements as given in patent publication US20140087995A1 (published 2014).
Numbered stars: 1 amine (or outer) side, 2 acyl side, 3 side chain; on linkers, the order of the positions; unused ones are H or OH. Bridge positions count the residues as written; N and C are the ends. Side chains are listed from the residue outwards. Ends that are not written are not given here. * marks the point of attachment. C20 diacid = O=C(O)CCCCCCCCCCCCCCCCCCC(=O)*; γGlu = O=C(O)[C@H](CCC(=O)[*:2])N[*:1]; AEEA = NCCOCCOCC(=O)O

B1: N^ε1-[2-[2-[2-[[(4S)-4-carboxy-4-(19-carboxynonadecanoylamino)butanoyl]amino]ethoxy]ethoxy]acetyl]-[Arg17,Pro21,Pro27,His34]-h-amylin (peptide)
peptide: K([AEEA-γGlu-C20 diacid])CNTATCATQRLANFLRHSSPNFGAIPSSTNVGHNTY-NH2
modifications: disulfide 2-7; N-terminus assumed
SMILES: CC[C@H](C)[C@H](NC(=O)[C@H](C)NC(=O)CNC(=O)[C@H](Cc1ccccc1)NC(=O)[C@H](CC(N)=O)NC(=O)[C@@H]1CCCN1C(=O)[C@H](CO)NC(=O)[C@H](CO)NC(=O)[C@H](Cc1c[nH]cn1)NC(=O)[C@H](CCCNC(=N)N)NC(=O)[C@H](CC(C)C)NC(=O)[C@H](Cc1ccccc1)NC(=O)[C@H](CC(N)=O)NC(=O)[C@H](C)NC(=O)[C@H](CC(C)C)NC(=O)[C@H](CCCNC(=N)N)NC(=O)[C@H](CCC(N)=O)NC(=O)[C@@H](NC(=O)[C@H](C)NC(=O)[C@@H]1CSSC[C@H](NC(=O)[C@@H](N)CCCCNC(=O)COCCOCCNC(=O)CC[C@H](NC(=O)CCCCCCCCCCCCCCCCCCC(=O)O)C(=O)O)C(=O)N[C@@H](CC(N)=O)C(=O)N[C@@H]([C@@H](C)O)C(=O)N[C@@H](C)C(=O)N[C@@H]([C@@H](C)O)C(=O)N1)[C@@H](C)O)C(=O)N1CCC[C@H]1C(=O)N[C@@H](CO)C(=O)N[C@@H](CO)C(=O)N[C@H](C(=O)N[C@@H](CC(N)=O)C(=O)N[C@H](C(=O)NCC(=O)N[C@@H](Cc1c[nH]cn1)C(=O)N[C@@H](CC(N)=O)C(=O)N[C@H](C(=O)N[C@@H](Cc1ccc(O)cc1)C(N)=O)[C@@H](C)O)C(C)C)[C@@H](C)O
notes: also called compound 76
B2: N^ε1-[2-[2-[2-[[2-[2-[2-[[(4S)-4-carboxy-4-(19-carboxynonadecanoylamino)butanoyl]amino]ethoxy]ethoxy]acetyl]amino]ethoxy]ethoxy]acetyl]-[Arg17,Pro21,Pro27,Pro31 … (peptide)
peptide: K([AEEA-AEEA-γGlu-C20 diacid])CNTATCATQRLANFLRHSSPNFGAIPSSTPVGSNTY-NH2
modifications: disulfide 2-7; N-terminus assumed
SMILES: CC[C@H](C)[C@H](NC(=O)[C@H](C)NC(=O)CNC(=O)[C@H](Cc1ccccc1)NC(=O)[C@H](CC(N)=O)NC(=O)[C@@H]1CCCN1C(=O)[C@H](CO)NC(=O)[C@H](CO)NC(=O)[C@H](Cc1c[nH]cn1)NC(=O)[C@H](CCCNC(=N)N)NC(=O)[C@H](CC(C)C)NC(=O)[C@H](Cc1ccccc1)NC(=O)[C@H](CC(N)=O)NC(=O)[C@H](C)NC(=O)[C@H](CC(C)C)NC(=O)[C@H](CCCNC(=N)N)NC(=O)[C@H](CCC(N)=O)NC(=O)[C@@H](NC(=O)[C@H](C)NC(=O)[C@@H]1CSSC[C@H](NC(=O)[C@@H](N)CCCCNC(=O)COCCOCCNC(=O)COCCOCCNC(=O)CC[C@H](NC(=O)CCCCCCCCCCCCCCCCCCC(=O)O)C(=O)O)C(=O)N[C@@H](CC(N)=O)C(=O)N[C@@H]([C@@H](C)O)C(=O)N[C@@H](C)C(=O)N[C@@H]([C@@H](C)O)C(=O)N1)[C@@H](C)O)C(=O)N1CCC[C@H]1C(=O)N[C@@H](CO)C(=O)N[C@@H](CO)C(=O)N[C@H](C(=O)N1CCC[C@H]1C(=O)N[C@H](C(=O)NCC(=O)N[C@@H](CO)C(=O)N[C@@H](CC(N)=O)C(=O)N[C@H](C(=O)N[C@@H](Cc1ccc(O)cc1)C(N)=O)[C@@H](C)O)C(C)C)[C@@H](C)O
notes: also called compound 96
B3: N^ε1-[2-[2-[2-[[2-[2-[2-[[(4S)-4-carboxy-4-(19-carboxynonadecanoylamino)butanoyl]amino]ethoxy]ethoxy]acetyl]amino]ethoxy]ethoxy]acetyl]-[Arg17,Pro21,Pro27,Arg34 … (peptide)
peptide: K([AEEA-AEEA-γGlu-C20 diacid])CNTATCATQRLANFLRHSSPNFGAIPSSTNVGRNTY-NH2
modifications: disulfide 2-7; N-terminus assumed
SMILES: CC[C@H](C)[C@H](NC(=O)[C@H](C)NC(=O)CNC(=O)[C@H](Cc1ccccc1)NC(=O)[C@H](CC(N)=O)NC(=O)[C@@H]1CCCN1C(=O)[C@H](CO)NC(=O)[C@H](CO)NC(=O)[C@H](Cc1c[nH]cn1)NC(=O)[C@H](CCCNC(=N)N)NC(=O)[C@H](CC(C)C)NC(=O)[C@H](Cc1ccccc1)NC(=O)[C@H](CC(N)=O)NC(=O)[C@H](C)NC(=O)[C@H](CC(C)C)NC(=O)[C@H](CCCNC(=N)N)NC(=O)[C@H](CCC(N)=O)NC(=O)[C@@H](NC(=O)[C@H](C)NC(=O)[C@@H]1CSSC[C@H](NC(=O)[C@@H](N)CCCCNC(=O)COCCOCCNC(=O)COCCOCCNC(=O)CC[C@H](NC(=O)CCCCCCCCCCCCCCCCCCC(=O)O)C(=O)O)C(=O)N[C@@H](CC(N)=O)C(=O)N[C@@H]([C@@H](C)O)C(=O)N[C@@H](C)C(=O)N[C@@H]([C@@H](C)O)C(=O)N1)[C@@H](C)O)C(=O)N1CCC[C@H]1C(=O)N[C@@H](CO)C(=O)N[C@@H](CO)C(=O)N[C@H](C(=O)N[C@@H](CC(N)=O)C(=O)N[C@H](C(=O)NCC(=O)N[C@@H](CCCNC(=N)N)C(=O)N[C@@H](CC(N)=O)C(=O)N[C@H](C(=O)N[C@@H](Cc1ccc(O)cc1)C(N)=O)[C@@H](C)O)C(C)C)[C@@H](C)O
notes: also called compound 95
B4: N^ε1-[2-[2-[2-(19-carboxynonadecanoylamino)ethoxy]ethoxy]acetyl]-[His14,Arg17,Pro21,Pro27]-h-amylin (peptide)
peptide: K([AEEA-C20 diacid])CNTATCATQRLAHFLRHSSPNFGAIPSSTNVGSNTY-NH2
modifications: disulfide 2-7; N-terminus assumed
SMILES: CC[C@H](C)[C@H](NC(=O)[C@H](C)NC(=O)CNC(=O)[C@H](Cc1ccccc1)NC(=O)[C@H](CC(N)=O)NC(=O)[C@@H]1CCCN1C(=O)[C@H](CO)NC(=O)[C@H](CO)NC(=O)[C@H](Cc1c[nH]cn1)NC(=O)[C@H](CCCNC(=N)N)NC(=O)[C@H](CC(C)C)NC(=O)[C@H](Cc1ccccc1)NC(=O)[C@H](Cc1c[nH]cn1)NC(=O)[C@H](C)NC(=O)[C@H](CC(C)C)NC(=O)[C@H](CCCNC(=N)N)NC(=O)[C@H](CCC(N)=O)NC(=O)[C@@H](NC(=O)[C@H](C)NC(=O)[C@@H]1CSSC[C@H](NC(=O)[C@@H](N)CCCCNC(=O)COCCOCCNC(=O)CCCCCCCCCCCCCCCCCCC(=O)O)C(=O)N[C@@H](CC(N)=O)C(=O)N[C@@H]([C@@H](C)O)C(=O)N[C@@H](C)C(=O)N[C@@H]([C@@H](C)O)C(=O)N1)[C@@H](C)O)C(=O)N1CCC[C@H]1C(=O)N[C@@H](CO)C(=O)N[C@@H](CO)C(=O)N[C@H](C(=O)N[C@@H](CC(N)=O)C(=O)N[C@H](C(=O)NCC(=O)N[C@@H](CO)C(=O)N[C@@H](CC(N)=O)C(=O)N[C@H](C(=O)N[C@@H](Cc1ccc(O)cc1)C(N)=O)[C@@H](C)O)C(C)C)[C@@H](C)O
notes: also called compound 90

These binders were tested against T1, human calcitonin receptor (human, UniProt P30988 25-474) (assay: ratio of IC50 at human calcitonin receptor to IC50 at human amylin receptor (SPA competition assays)).
T1 construct: whole, on cells; also called hCTR; hCT
T1 sequence (looked up): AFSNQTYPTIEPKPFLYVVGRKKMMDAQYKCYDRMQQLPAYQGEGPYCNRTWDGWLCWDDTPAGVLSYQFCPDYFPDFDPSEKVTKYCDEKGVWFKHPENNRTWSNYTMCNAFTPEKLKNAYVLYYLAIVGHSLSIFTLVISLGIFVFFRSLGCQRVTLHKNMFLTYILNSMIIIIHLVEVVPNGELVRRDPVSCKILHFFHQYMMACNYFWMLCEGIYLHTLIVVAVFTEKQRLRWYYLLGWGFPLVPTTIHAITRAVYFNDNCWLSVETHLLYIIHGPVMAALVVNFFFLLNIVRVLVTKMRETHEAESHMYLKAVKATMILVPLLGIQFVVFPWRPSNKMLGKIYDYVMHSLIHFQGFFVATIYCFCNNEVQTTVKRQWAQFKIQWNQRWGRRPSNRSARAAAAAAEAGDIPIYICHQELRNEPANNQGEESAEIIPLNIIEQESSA
Procedure: The resulting pellet was resuspended, homogenized and centrifuged (20.000 rpm, 15 min) in a buffer containing 20 mM Na-HEPES and 0.1 mM EDTA (pH 7.4, buffer 2). The resulting pellet was resuspended in buffer 2 and protein concentration was measured (BCA protein Assay, Pierce). The homogenate was kept cold during the whole procedure. The membranes were kept at −80° C. until use. The assay was performed in a 384 well Optiplate (PerkinElmer) in a total volume of 40 ul. Membranes were mixed with SPA beads. Final concentration of membranes 35 ng/μL final and SPA beads was 0.05 mg/well. Test-compounds were dissolved in DMSO and further diluted in assay buffer (50 mM Hepes, pH 7.4, 1 mM CaCl2, 5 mM MgCl₂, 0.1% OA and 0.02% Tween20). […] The final mixture was incubated with shaking at 400 rpm for 120 min at 25° C. prior to centrifugation (1500 rpm, 10 min). Samples were analyzed on TopCounter™ (Packard). The IC₅₀ was calculated using (one site binding competition analysis) GraphPad Prism5 as a measure of receptor affinity.
Membranes were prepared in the following way; the cells were rinsed with PBS and incubated with Versene for approximately 5 min before harvesting. The cells were flushed with PBS and the cell-suspension was centrifuged for 5 min at 1000 rpm. Cells were homogenized (Ultrathurrax) in a buffer containing 20 mM Na-HEPES and 10 mM EDTA (pH 7.4) and centrifuged at 20.000 rpm for 15 min. The resulting pellet was resuspended, homogenized and centrifuged (20.000 rpm, 15 min) in a buffer containing 20 mM Na-HEPES and 0.1 mM EDTA (pH 7.4, buffer 2). The resulting pellet was resuspended in buffer 2 and protein concentration was measured (BCA protein Assay, Pierce). The homogenate was kept cold during the whole procedure. The membranes were kept at −80° C. until use. Assay was performed in a 384 well Optiplate (PerkinElmer) in a total volume of 40 ul. Membranes were mixed with SPA beads.
In the case of B1, the “Ratio hCT/hAmylin binding” value is reported as 80.
In the case of B2, the “Ratio hCT/hAmylin binding” value is reported as 79.6.
In the case of B3, the “Ratio hCT/hAmylin binding” value is reported as 63.4.
For B4, the “Ratio hCT/hAmylin binding” value was 42.2.

Each binder was assayed against T1, human calcitonin receptor (assay: SPA radioligand competition (125I-calcitonin), membranes of BHK cells with human calcitonin receptor).
Procedure: Membranes were prepared in the following way; the cells were rinsed with PBS and incubated with Versene for approximately 5 min before harvesting. The cells were flushed with PBS and the cell-suspension was centrifuged for 5 min at 1000 rpm. Cells were homogenized (Ultrathurrax) in a buffer containing 20 mM Na-HEPES and 10 mM EDTA (pH 7.4) and centrifuged at 20.000 rpm for 15 min. The resulting pellet was resuspended, homogenized and centrifuged (20.000 rpm, 15 min) in a buffer containing 20 mM Na-HEPES and 0.1 mM EDTA (pH 7.4, buffer 2). The resulting pellet was resuspended in buffer 2 and protein concentration was measured (BCA protein Assay, Pierce). The homogenate was kept cold during the whole procedure. The membranes were kept at −80° C. until use. Assay was performed in a 384 well Optiplate (PerkinElmer) in a total volume of 40 ul. Membranes were mixed with SPA beads. Final concentration of membranes 35 ng/μL final and Final concentration of SPA beads was 0.05 mg/well. Test-compounds were dissolved in DMSO and further diluted in assay buffer (50 mM Hepes, pH 7.4, 1 mM CaCl2, 5 mM MgCl₂, 0.1% OA and 0.02% Tween20). […] The final mixture was incubated for 120 min with shaking at 400 rpm at 25° C. prior to centrifugation (1500 rpm, 10 min). Samples were analyzed on TopCounter™ (Packard). The […] was calculated using (one site binding competition analysis) GraphPad Prism5 as a measure of receptor affinity.
For B1, the IC50 was 17.2 nM.
With B2 the IC50 was 13.2 nM.
B3 was tested, and the IC50 was 61.3 nM.
B4 showed an IC50 of 2.57 nM.
